Numbering of substitutions follows the chain as printed.

In general, Kd refers to a measure of binding affinity in units of concentration. A higher Kd goes with a looser complex.

Assay in all cases: FP
Experiment [1] has as its target T1, ARPP19(S10C) labelled with Alexa Fluor 488 (ARPP19-tracer) (UniProt P56211 1-112, S10C, Alexa Fluor 488 C5 Maleimide label).
T1 sequence: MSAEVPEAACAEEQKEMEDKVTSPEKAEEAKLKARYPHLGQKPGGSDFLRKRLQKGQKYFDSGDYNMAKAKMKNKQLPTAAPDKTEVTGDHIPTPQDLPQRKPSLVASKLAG

Another experiment has as its target FAM_(67-120)S120C (UniProt Q96E09 67-120, S120C, Alexa Fluor 488 C5 Maleimide label).
Experiment [2] addresses FAM122AID(S120C) (FAM122AID-tracer) (UniProt Q96E09 29-120, S120C, Alexa Fluor 488 C5 Maleimide label (fluorescence polarization assay)).
Experiment [3] concerns the target T2, ARPP19 S104A as used in the fluorescence polarization assay (UniProt P56211 1-112, S104A).
T2 sequence: T1 sequence with C10S, S104A

B1: B55 loopless (B55LL) (domain or fragment)
chain: MAGAGGGNDIQWCFSQVKGAVDDDVAEADIISTVEFNHSGELLATGDKGGRVVIFQQEQENKIQSHSRGEYNVYSTFQSHEPEFDYLKSLEIEEKINKIRWLPQKNAAQFLLSTNDKTIKLWKISNGEASPRRIFANAHTYHINSISINSDYETYLSADDLRINLWHLEITDRSFNIVDIKPANMEELTEVITAAEFHPNSCNTFVYSSSKGTIRLCDMRASALCDRHSKLFEEPEDPSNRSFFSEIISSISDVKFSHSGRYMMTRDYLSVKIWDLNMENRPVETYQVHEYLRSKLCSLYENDCIFDKFECCWNGSDSVVMTGSYNNFFRMFDRNTKRDITLEASRENNKPRTVLKPRKVCASGKRKKDEISVDSLDFNKKILHTAWHPKENIIAVATTNNLYIFQDKVN
Turning to B1, the Kd came out at 323 nM in experiment [1], 827 nM with FAM_(67-120)S120C, 837 nM in experiment [2] and 326 nM in experiment [3].

For the origin of these results see paper PMC10765524 (2023).
